Results as given in paper PMC12307675.

target: recombinant SARS-CoV-2 spike protein (SARS-CoV-2) (UniProt P0DTC2); assay: SPR

For “HMGB1-A box (aa 1–79), 6x His-tagged (from UniProt P09429 1-79) (domain or fragment)”, which Kd is on record?
Its Kd is 6100 nM.

How did the Kd turn out when “HMGB1-B box (aa 89–162), 6x His-tagged (from UniProt P09429 89-162) (domain or fragment)” was run?
Its Kd is 1020 nM.

Which Kd does the source give for “acidic C-tail-deleted HMGB1 (HMGB1-ΔC, aa 1–186), 6x His-tagged (from UniProt P09429 1-186) (domain or fragment)” here?
Its Kd is 1380 nM.

With “full-length HMGB1 (HMGB1-WT), 6x His-tagged (from UniProt P09429 1-215) (natural protein)” as the substance, how does the Kd read?
Its Kd is 3550 nM.
